# Data published in PMC6389178, “Nanoscale click-reactive scaffolds from peptide self-assembly” (Journal of Nanobiotechnology, 2017).
# Where no end group is shown, it is not given here.
# Target: the molecule itself
# Test: atomic force microscopy + co-sedimentation; peptide 10 mg/mL in 10% acetonitrile in water, shaken at 600 rpm at 37 °C for 24 h; fibrils imaged by AFM on mica; fibrils pelleted at 313,000 x g for 30 min, supernatant with unaggregated monomer removed, and the pellet's peptide analysed by LC-MS
protein,measurement,value
"YTIAALLSPYS-NH2 [TTR105-115 peptide, unfunctionalised 'wild-type', amide-terminated]",binding result,binds
